Test system: Escherichia coli TOP10
Assay: shrunken log2 fold change of peptide-encoding DNA abundance (4.5 h post-induction vs induction); higher = less antimicrobial activity (less host growth inhibition)
Conditions: time post-induction: 4.5 h; library: site-saturation at positions 5, 18, 19, 20
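Also: peptides expressed intracellularly from a pBAD plasmid library in pooled LB shake-flask culture, induced with 0.3% L-arabinose, DNA abundance read by NGS, three biological replicates, DESeq2 with apeglm shrinkage.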

Row | Sequence | shrunken log2 fold change
1 | RRIRPRPPRLPRPRPRPMSMPRP | -0.11
2 | RRIRPRPPRLPRPRPRPMWGPRP | 0.0327
3 | RRIRPRPPRLPRPRPRPMYAPRP | -0.302
4 | RRIRPRPPRLPRPRPRPNCFPRP | -0.0261
5 | RRIRPRPPRLPRPRPRPNCHPRP | 0.0382
6 | RRIRPRPPRLPRPRPRPNCIPRP | -0.134
7 | RRIRPRPPRLPRPRPRPNECPRP | -0.217
8 | RRIRPRPPRLPRPRPRPNGAPRP | 0.327
9 | RRIRPRPPRLPRPRPRPNGDPRP | -0.0945
10 | RRIRPRPPRLPRPRPRPNGYPRP | -0.224
11 | RRIRPRPPRLPRPRPRPNHFPRP | -0.592
12 | RRIRPRPPRLPRPRPRPNIFPRP | -0.189
13 | RRIRPRPPRLPRPRPRPNIYPRP | -0.69
14 | RRIRPRPPRLPRPRPRPNKFPRP | -0.173
15 | RRIRPRPPRLPRPRPRPNKHPRP | -0.374
16 | RRIRPRPPRLPRPRPRPNMTPRP | -0.13
17 | RRIRPRPPRLPRPRPRPNSCPRP | -0.241
18 | RRIRPRPPRLPRPRPRPNSPPRP | -0.255
19 | RRIRPRPPRLPRPRPRPNTDPRP | -0.374
20 | RRIRPRPPRLPRPRPRPNTKPRP | 0.0992
21 | RRIRPRPPRLPRPRPRPNVNPRP | -0.46
22 | RRIRPRPPRLPRPRPRPNWDPRP | 0.0377

Row | Sequence | shrunken log2 fold change
23 | RRIRPRPPRLPRPRPRPNWNPRP | -0.184
24 | RRIRPRPPRLPRPRPRPPACPRP | 0.207
25 | RRIRPRPPRLPRPRPRPPAKPRP | 0.657
26 | RRIRPRPPRLPRPRPRPPAPPRP | 0.629
27 | RRIRPRPPRLPRPRPRPPARPRP | 0.748
28 | RRIRPRPPRLPRPRPRPPCPPRP | 0.294
29 | RRIRPRPPRLPRPRPRPPDTPRP | 0.148
30 | RRIRPRPPRLPRPRPRPPEDPRP | 0.695
31 | RRIRPRPPRLPRPRPRPPEGPRP | 0.436
32 | RRIRPRPPRLPRPRPRPPESPRP | 0.841
33 | RRIRPRPPRLPRPRPRPPGRPRP | 0.567
34 | RRIRPRPPRLPRPRPRPPINPRP | -0.158
35 | RRIRPRPPRLPRPRPRPPIQPRP | 0.00728
36 | RRIRPRPPRLPRPRPRPPLHPRP | 0.21
37 | RRIRPRPPRLPRPRPRPPMMPRP | 0.0805
38 | RRIRPRPPRLPRPRPRPPMRPRP | 0.833
39 | RRIRPRPPRLPRPRPRPPQGPRP | 0.686
40 | RRIRPRPPRLPRPRPRPPQTPRP | 0.362
41 | RRIRPRPPRLPRPRPRPPRRPRP | 0.638
42 | RRIRPRPPRLPRPRPRPPSTPRP | 0.123
43 | RRIRPRPPRLPRPRPRPPVNPRP | 0.15
44 | RRIRPRPPRLPRPRPRPPWDPRP | 0.312

Row | Sequence | shrunken log2 fold change
45 | RRIRPRPPRLPRPRPRPQADPRP | 0.154
46 | RRIRPRPPRLPRPRPRPQAHPRP | -0.243
47 | RRIRPRPPRLPRPRPRPQCAPRP | 0.167
48 | RRIRPRPPRLPRPRPRPQCFPRP | 0.185
49 | RRIRPRPPRLPRPRPRPQCMPRP | -0.312
50 | RRIRPRPPRLPRPRPRPQDEPRP | 0.0996
51 | RRIRPRPPRLPRPRPRPQDTPRP | -0.229
52 | RRIRPRPPRLPRPRPRPQDWPRP | 0.0908
53 | RRIRPRPPRLPRPRPRPQEKPRP | -0.0282
54 | RRIRPRPPRLPRPRPRPQEQPRP | -0.0215
55 | RRIRPRPPRLPRPRPRPQFKPRP | 0.0824
56 | RRIRPRPPRLPRPRPRPQGCPRP | -0.0849
57 | RRIRPRPPRLPRPRPRPQGYPRP | -0.0854
58 | RRIRPRPPRLPRPRPRPQHRPRP | 0.162
59 | RRIRPRPPRLPRPRPRPQIHPRP | -0.536
60 | RRIRPRPPRLPRPRPRPQIKPRP | -0.282
61 | RRIRPRPPRLPRPRPRPQILPRP | -0.172
62 | RRIRPRPPRLPRPRPRPQKHPRP | 0.865
63 | RRIRPRPPRLPRPRPRPQLDPRP | 0.314
64 | RRIRPRPPRLPRPRPRPQLQPRP | -0.167
65 | RRIRPRPPRLPRPRPRPQMCPRP | -0.101
66 | RRIRPRPPRLPRPRPRPQMWPRP | 0.0355

Row | Sequence | shrunken log2 fold change
67 | RRIRPRPPRLPRPRPRPQNSPRP | -0.469
68 | RRIRPRPPRLPRPRPRPQPIPRP | 0.0388
69 | RRIRPRPPRLPRPRPRPQQDPRP | -0.301
70 | RRIRPRPPRLPRPRPRPQSQPRP | -0.00349
71 | RRIRPRPPRLPRPRPRPQSYPRP | -0.202
72 | RRIRPRPPRLPRPRPRPQWGPRP | 0.132
73 | RRIRPRPPRLPRPRPRPQWVPRP | 0.0693
74 | RRIRPRPPRLPRPRPRPQYCPRP | -0.106
75 | RRIRPRPPRLPRPRPRPQYGPRP | -0.725
76 | RRIRPRPPRLPRPRPRPQYHPRP | -0.68
77 | RRIRPRPPRLPRPRPRPQYSPRP | -0.0482
78 | RRIRPRPPRLPRPRPRPRCFPRP | 0.155
79 | RRIRPRPPRLPRPRPRPRCYPRP | 0.0458
80 | RRIRPRPPRLPRPRPRPRDMPRP | 0.201
81 | RRIRPRPPRLPRPRPRPRDWPRP | 0.531
82 | RRIRPRPPRLPRPRPRPRFTPRP | 0.116
83 | RRIRPRPPRLPRPRPRPRGCPRP | 0.251
84 | RRIRPRPPRLPRPRPRPRHCPRP | 0.115
85 | RRIRPRPPRLPRPRPRPRHSPRP | -0.0642
86 | RRIRPRPPRLPRPRPRPRKEPRP | -0.157
87 | RRIRPRPPRLPRPRPRPRKIPRP | -0.0764
88 | RRIRPRPPRLPRPRPRPRLNPRP | 0.307

Row | Sequence | shrunken log2 fold change
89 | RRIRPRPPRLPRPRPRPRMHPRP | 0.115
90 | RRIRPRPPRLPRPRPRPRMIPRP | 0.0799
91 | RRIRPRPPRLPRPRPRPRMMPRP | 0.323
92 | RRIRPRPPRLPRPRPRPRNCPRP | 0.0981
93 | RRIRPRPPRLPRPRPRPRPWPRP | 0.212
94 | RRIRPRPPRLPRPRPRPRQRPRP | 0.382
95 | RRIRPRPPRLPRPRPRPRREPRP | 0.187
96 | RRIRPRPPRLPRPRPRPRSGPRP | 0.0638
97 | RRIRPRPPRLPRPRPRPRSSPRP | 0.151
98 | RRIRPRPPRLPRPRPRPRTHPRP | 0.107
99 | RRIRPRPPRLPRPRPRPRTYPRP | -0.196
100 | RRIRPRPPRLPRPRPRPRVAPRP | 0.743
101 | RRIRPRPPRLPRPRPRPRVLPRP | -0.0343
102 | RRIRPRPPRLPRPRPRPRWFPRP | 0.405
103 | RRIRPRPPRLPRPRPRPRWMPRP | 0.412
104 | RRIRPRPPRLPRPRPRPRWPPRP | 0.616
105 | RRIRPRPPRLPRPRPRPSCMPRP | -0.279
106 | RRIRPRPPRLPRPRPRPSDKPRP | -0.264
107 | RRIRPRPPRLPRPRPRPSEHPRP | -0.233
108 | RRIRPRPPRLPRPRPRPSFAPRP | 0.258
109 | RRIRPRPPRLPRPRPRPSFDPRP | -0.248
